Data taken from article PMC12000384, “Competition for the nascent leading strand shapes the requirements for PCNA loading in the replisome” (The EMBO Journal, 2025).
Blank lines part the entries; values can stand above or below the binder they belong to.

Biological target: T1, CMG (Cdc45-MCM-GINS) helicase (S. cerevisiae, UniProt Q08032 1-650; P29469 1-868; P24279 1-971; P30665 1-933; P29496 1-775; P53091 …)
T1 construct: Cdc45, S. cerevisiae; Mcm2, S. cerevisiae; Mcm3, S. cerevisiae; Mcm4, S. cerevisiae; Mcm5, S. cerevisiae; Mcm6, S. cerevisiae; Mcm7, S. cerevisiae; GINS subunit, S. cerevisiae; 11-subunit helicase; The two strains express the same chains; in yVA94 endogenous Ctf4-2xStrep was depleted on Strep-Tactin resin; also called Ctf4-depleted CMG; wild-type CMG; source: S. cerevisiae, overexpressed, …
Assay: cryo-EM structure; replisome reconstituted on ice on forked DNA with 0.5 mM AMP-PNP from 150 nM CMG (Ctf4-depleted), Pol ε^exo-, Ctf18-RFC, Tof1-Csm3, Ctf4 and Mrc1 in 25 mM HEPES-NaOH pH 7.6, 150 mM NaOAc, 15 mM Mg(OAc)2, 0.5 mM TCEP; 10-30% glycerol gradient with glutaraldehyde and BS3 cross-linking
Settings: both partners purified

- binding result: binds
B1: Tof1-Csm3 (complex, S. cerevisiae)
chain 1: MSADLQQGTTNAADFSLTVLRARIALLATAIGGPDYTSQIDPPPYKLGDDCLACLKDLKRWFKLVDDQQKRWDVAMAVAEYRILTDDLLPILIDWENKCSLAAKLAKNNPDHEEFRNKAYYDKIALNCLQLLVLMTWPLIVTEQSSSNQITLYGELKKHQLVYKKTILSMESGKVLRAAIRLALDVIKIDRLSRTPRDNMVLKLVLNFFRNVIAIEPGEFTINTKKSMPKKGITSIDTLPPNVSMDDISLNTVISSFHKNKVFGFLLTLTSSLSKEFDQDFINIPLLEIMFYFTKDVNQELLFPRQFETGTHSKVVNKNESSSANNIVTSAGFELSKLLQKEHQMRKNVIKHTSARHSRFGGLLSIQTPDKTRLTVSGSQALVDEKIALQKLDDSKKWNKRIIKKHQSVAAEGLPNSLLNSQTGKAIFFTESNGKHFKEFINNFIDSGFNILLHSVTNYFTTEQDRMVTLEQVEYLLFFAWFVKYQLLRSKIDNSADIKQVSEALKEVTFILVSSLLRSAYDLKNWTVTHAGMIAFNELLNLVSRTKAAQEEDSTDIEFIVSRLFSDERIQLLSNLPKIGSKYSLQFMKSCIELTHSVLKVLEQYSDDKTLVIEGKSRRQKKFNISEGDITKLIEEENVDRDEALDILTSSLRSIEVNFQKVQANYMTEPVIETYINFLERFRELEDDSIKKVFSFFHRVFVQAKEQALLFRFDLIILLREMLSPDGLDRMSRSRKYVSQFSDYFLARLKKRLKKSPAWFVGLLFPPLHNSEVGFYQRYGEYNVLNNESMYAAPASQFKPIPDEEALPPSILLDMKYGVLVSTLLDDGKTELLDQLLKHITHTLDIFKSWLTVNVNAGKETVNPPNEYFTLTGVLNNDPIFKDKDYRALLLLIGYSIPRKINEPCFLPGTVEVSDLTVSCELVKKYLSTPFETPNGLPSSSYLLRVRSEKDSFSHNEQDGWEGDDDYDYNDPYIVPDDQILSKSDAAYFKDLDNNASDKLKGTKFSKGIARSKKKDKRKRRKGEAKTNLPMFGDQDDERPQTVRERHGVFSKEFISDSEDDEDLMNPIFFENETYMRWLLDKNNGQLTEDRYIQFAKFAAERMNNGGVVTGDYTSLFGGSIPSIESIRATESSSFAPDKSLISLASHVASEMSIFDVNNNNNNQLSDDDVNSESRNSLGSSQPSNSQNMFQSEVYSRKESTKRSLEASAADESDEDEEAIRLFGKKSRVVLSQGDSDD
chain 2: MDQDFDSLLLGFNDSDSVQKDPTVPNGLDGSVVDPTIADPTAITARKRRPQVKLTAEKLLSDKGLPYVLKNAHKRIRISSKKNSYDNLSNIIQFYQLWAHELFPKAKFKDFMKICQTVGKTDPVLREYRVSLFRDEMGMSFDVGTRETGQDLERQSPMVEEHVTSAEERPIVADSFAQDKRNVNNVDYDNDEDDDIYHLSYRNRRGRVLDERGNNETVLNNVVPPKEDLDALLKTFRVQGPVGLEENEKKLLLGWLDAHRKMEKGSMTEEDVQLIQSLEEWEMNDIEGQHTHYDLLPGGDEFGVDQDELDAMKEMGF
notes: Tof1, S. cerevisiae; Csm3, S. cerevisiae; source: purified as in Yeeles et al, 2017

- binding result: binds
B2: Ctf4 (natural protein, S. cerevisiae, UniProt Q01454 1-927, looked up)
chain: MVSVIDKLVFDFGGKTLVSLAPDNNTLCVANKNGLTKILKTNNPEEEPETLDSSKLVSSIKCYSNSHFLMTTMQGDALRYNIDSSQEELLARFALPLRDCCVIHSGKMAVFGGDDLELILLELDDETHKKHAIKIDEQVSQISYNSQMNILAVSMINGKVQIFSLTSTIPNKVHELNDYIVANSYDDTHRDKILSNMMDDIDKDNDNDLSETADPDENNVADPEFCAANRICTRVAWHPKGLHFALPCADDTVKIFSIKGYSLQKTLSTNLSSTKAHFIDLQFDPLRGTYIAAVDLNNKLTVWNWETSEIHYTREFKRKITNIAWKIQADSKTLDLVLGTWSGSIAIVQNLAESVVSNIPDQSVAESSTKHGLFVDSESDLENLEGNDDINKSDKLFSDITQEANAEDVFTQTHDGPSGLSEKRKYNFEDEEDFIDDDDGAGYISGKKPHNEHSYSRVHKTHSFPISLANTGKFRYMPFSPAGTPFGFTDRRYLTMNEVGYVSTVKNSEQYSITVSFFDVGRFREYHFEDLFGYDLCFLNEKGTLFGQSKTGQIQYRPHDSIHSNWTKIIPLQAGERITSVAATPVRVIVGTSLGYFRSFNQFGVPFAVEKTSPIVALTAQNYRVFSVHYSQFHGLSYSLSELGTSSKRYYKRECPLPMSLPNINSDMKKDANLDYYNFNPMGIKSLFFSSYGDPCIFGSDNTLLLLSKWRSPEESKWLPILDSNMEIWKMSGGKETTDIHVWPLALAYDTLNCILVKGKHIWPEFPLPLPSEMEIRMPVFVKSKLLEENKAILNKKNEIGADTEAEEGEEDKEIQIPVSMAAEEEYLRSKVLSELLTDTLENDGEMYGNENEVLAALNGAYDKALLRLFASACSDQNVEKALSLAHELKQDRALTAAVKISERAELPSLVKKINNIREARYEQQLK
notes: Ctf4, S. cerevisiae; source: purified as in Yeeles et al, 2015
